Reference: PMC9536298

Molecular target: T1, GST-ZPR1 (human, UniProt O75312 1-459)
T1 sequence: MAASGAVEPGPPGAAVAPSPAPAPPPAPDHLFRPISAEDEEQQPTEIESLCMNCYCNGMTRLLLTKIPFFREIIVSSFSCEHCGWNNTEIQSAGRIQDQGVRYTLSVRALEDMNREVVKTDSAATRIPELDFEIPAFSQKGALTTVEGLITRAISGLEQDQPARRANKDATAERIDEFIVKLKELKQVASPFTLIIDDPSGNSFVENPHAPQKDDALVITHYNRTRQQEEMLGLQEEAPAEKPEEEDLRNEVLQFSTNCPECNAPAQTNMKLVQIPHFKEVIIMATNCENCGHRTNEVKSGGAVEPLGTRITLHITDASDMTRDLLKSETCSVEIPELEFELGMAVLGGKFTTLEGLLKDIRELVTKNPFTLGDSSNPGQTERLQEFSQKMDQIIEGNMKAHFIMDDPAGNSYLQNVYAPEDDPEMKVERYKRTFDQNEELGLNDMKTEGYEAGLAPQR
Experiment: EMSA

## CGAAACTACCTTCAACTCCATCATGAAGTGTGACGTGGAC (ssDNA) [DNA* 40 nt]
  binding result: binds
